Target: rat neurokinin-1 receptor (NK-1R) (rat) (UniProt P14600)
Sequence (P14600 whole entry): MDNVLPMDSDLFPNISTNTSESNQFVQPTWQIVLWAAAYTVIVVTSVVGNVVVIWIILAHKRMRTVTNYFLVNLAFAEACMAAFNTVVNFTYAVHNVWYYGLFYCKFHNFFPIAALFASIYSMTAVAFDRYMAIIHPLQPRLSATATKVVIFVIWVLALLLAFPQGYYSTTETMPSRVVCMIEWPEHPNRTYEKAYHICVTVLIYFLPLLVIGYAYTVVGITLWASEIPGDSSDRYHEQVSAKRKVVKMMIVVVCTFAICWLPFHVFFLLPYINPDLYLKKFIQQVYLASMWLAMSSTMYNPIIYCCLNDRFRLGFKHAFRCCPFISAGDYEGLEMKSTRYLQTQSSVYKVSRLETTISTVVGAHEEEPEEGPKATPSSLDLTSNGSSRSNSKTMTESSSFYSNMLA

[Sar9, Met (02)11]-SP-SAP (from UniProt P20656 25-277)
IC50 (read off the curve): 0.2 nM

Reference: patent US20040253248A1
